Measurements: patent US20200317768A1 (published 2020)

Columns and labels:
[1] = molecular target: T1, human FcγRIIaH extracellular domain, His-tagged (human, UniProt P12318 34-217); assay: SPR; KD of SG1 / KD of variant;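 note: relative to parent M103205H795-SG1 carrying the SG1 human heavy chain constant region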
T1 construct: also called human FcγRIIa (type H); FcgRIIaH
T1 sequence: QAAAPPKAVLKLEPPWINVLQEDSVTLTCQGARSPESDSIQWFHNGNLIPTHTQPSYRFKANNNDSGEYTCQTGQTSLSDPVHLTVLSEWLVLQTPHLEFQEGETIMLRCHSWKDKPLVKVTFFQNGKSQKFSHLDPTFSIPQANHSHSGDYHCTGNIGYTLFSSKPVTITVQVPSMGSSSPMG

[2] = molecular target: T2, cynomolgus monkey FcγRIIa3 extracellular domain, His-tagged (cynomolgus monkey); assay: SPR; KD of SG1 / KD of variant;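 note: relative to parent M103205H795-SG1 carrying the SG1 human heavy chain constant region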
T2 construct: also called cyno FcγRIIa3; cynoFcgRIIa3
T2 chain: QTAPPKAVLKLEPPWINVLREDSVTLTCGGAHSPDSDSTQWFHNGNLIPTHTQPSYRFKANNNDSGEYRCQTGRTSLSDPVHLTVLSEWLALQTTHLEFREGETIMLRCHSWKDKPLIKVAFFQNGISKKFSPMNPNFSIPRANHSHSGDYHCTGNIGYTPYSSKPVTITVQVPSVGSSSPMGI

[3] = molecular target: T3, cynomolgus monkey FcγRIIIaS extracellular domain, His-tagged (cynomolgus monkey, UniProt Q8SPW2 21-206 at identity 1.00)); assay: SPR; KD of SG1 / KD of variant;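 note: relative to parent M103205H795-SG1 carrying the SG1 human heavy chain constant region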
T3 construct: also called cyno FcγRIIIaS; cynoFcγRIIIaS
T3 chain: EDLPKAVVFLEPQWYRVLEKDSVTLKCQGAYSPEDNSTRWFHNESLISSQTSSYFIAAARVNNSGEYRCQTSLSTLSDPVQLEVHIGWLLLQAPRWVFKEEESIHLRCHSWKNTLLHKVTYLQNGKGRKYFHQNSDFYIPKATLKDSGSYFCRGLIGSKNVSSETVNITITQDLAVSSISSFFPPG

[4] = molecular target: T4, human FcγRIIIaV extracellular domain, His-tagged (human, UniProt P08637 17-208); assay: SPR; KD of SG1 / KD of variant;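 note: relative to parent M103205H795-SG1 carrying the SG1 human heavy chain constant region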
T4 construct: also called FcgRIIIaV
T4 sequence (P08637 17-208 F176V): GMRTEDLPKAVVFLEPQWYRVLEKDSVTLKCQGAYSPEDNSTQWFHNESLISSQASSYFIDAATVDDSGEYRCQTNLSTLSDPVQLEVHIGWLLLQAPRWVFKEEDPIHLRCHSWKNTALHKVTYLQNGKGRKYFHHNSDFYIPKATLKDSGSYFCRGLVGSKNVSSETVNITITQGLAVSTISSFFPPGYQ

[5] = molecular target: T5, human FcγRIIaR extracellular domain, His-tagged (human, UniProt P12318 34-217); assay: SPR; KD of SG1 / KD of variant
T5 construct: also called human FcγRIIa (type R); FcgRIIaR
T5 chain: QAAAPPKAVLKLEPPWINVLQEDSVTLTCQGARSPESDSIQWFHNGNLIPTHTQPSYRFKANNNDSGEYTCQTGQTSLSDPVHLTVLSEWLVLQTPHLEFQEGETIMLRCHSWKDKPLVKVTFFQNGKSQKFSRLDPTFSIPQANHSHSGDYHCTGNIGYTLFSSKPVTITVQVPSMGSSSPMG

[6] = molecular target: T6, cynomolgus monkey FcγRIIb extracellular domain, His-tagged (cynomolgus monkey); assay: SPR; KD of SG1 / KD of variant
T6 construct: also called cyno FcγRIIb; cynoFcγRIIb
T6 chain: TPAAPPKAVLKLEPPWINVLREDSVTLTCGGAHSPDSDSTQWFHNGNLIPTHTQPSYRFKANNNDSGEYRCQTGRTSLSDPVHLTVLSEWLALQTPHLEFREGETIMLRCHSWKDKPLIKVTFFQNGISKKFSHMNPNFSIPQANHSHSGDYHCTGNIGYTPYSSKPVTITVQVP

[7] = molecular target: T7, cynomolgus monkey FcγRIIa2 extracellular domain, His-tagged (cynomolgus monkey); assay: SPR; KD of SG1 / KD of variant
T7 construct: also called cyno FcγRIIa2; cynoFcgRIIa2
T7 chain: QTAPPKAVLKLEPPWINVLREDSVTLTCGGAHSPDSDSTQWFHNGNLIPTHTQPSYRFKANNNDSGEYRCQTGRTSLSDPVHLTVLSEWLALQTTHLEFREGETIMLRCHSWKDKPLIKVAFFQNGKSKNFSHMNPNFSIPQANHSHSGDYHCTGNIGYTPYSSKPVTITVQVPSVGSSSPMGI

[8] = molecular target: T8, human FcγRIIb extracellular domain, His-tagged (human, UniProt P31994 43-217); assay: SPR; KD of SG1 / KD of variant
T8 construct: also called FcgRIIb (human)
T8 sequence: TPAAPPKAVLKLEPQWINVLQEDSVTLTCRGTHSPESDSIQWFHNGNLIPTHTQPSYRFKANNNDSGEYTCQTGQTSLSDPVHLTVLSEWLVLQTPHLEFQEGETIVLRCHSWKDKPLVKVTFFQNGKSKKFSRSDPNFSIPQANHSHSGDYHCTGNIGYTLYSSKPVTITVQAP

[9] = molecular target: T9, cynomolgus monkey FcγRIIa1 extracellular domain, His-tagged (cynomolgus monkey); assay: SPR; KD of SG1 / KD of variant
T9 construct: also called cyno FcγRIIa1; cynoFcgRIIa1
T9 chain: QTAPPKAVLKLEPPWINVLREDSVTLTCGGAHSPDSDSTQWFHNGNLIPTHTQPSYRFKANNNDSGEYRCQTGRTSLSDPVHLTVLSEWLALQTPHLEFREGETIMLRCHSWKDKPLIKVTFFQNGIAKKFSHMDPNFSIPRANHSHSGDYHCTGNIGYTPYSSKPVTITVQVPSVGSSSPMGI

[10] = molecular target: T1, human FcγRIIaH extracellular domain, …; assay: SPR, antibody captured, FcgR analyte
Description: (§1) The kinetic analysis of interactions between these antibodies and FcγR was carried out using BIACORE® T200 or BIACORE® 4000 (GE Healthcare). HBS-EP+ (GE Healthcare) was used as the running buffer, and the measurement temperature was set to 25° C. A chip produced by immobilizing Protein A. Protein A/G or mouse anti-human IgG kappa light chain (BD Biosciences) onto a Series S Sensor Chip CM4 or CM5 (GE Healthcare) by the amine-coupling method was used. […] After the measurement, the antibody captured on the chip was washed off by allowing reaction with 10 mM glycine-HCl, pH1.5 and 25 mM NaOH so that the chip was regenerated and used repeatedly. The sensorgrams obtained as measurement results were analyzed by the 1:1 Langmuir binding model using the BIACORE® Evaluation Software to calculate the binding rate constant ka (L/mol/s) and dissociation rate constant kd (l/s), and the dissociation constant KD (mol/L) was calculated from these values. […] Regarding such interactions, KD values were calculated using the following 1:1 binding model described in BIACORE® T100 Software Handbook BR1006-48 Edition AE.
(§2) The behavior of interacting molecules according to the 1:1 binding model on BIACORE® can be described by Equation 1: Req=C·R max/(KD+C)+RI, wherein, Req is a plot of steady-state binding levels to analyte concentration. C is concentration, RI is bulk refractive index contribution in the sample, and Rmax is analyte binding capacity of the surface. When this equation is rearranged, KD can be expressed as Equation 2: KD=C·Rmax/(Req−RI)−C. KD can be calculated by substituting the values of Rmax, RI, and C into Equation 1 or Equation 2. From the current measurement conditions, RI=0, C=2 μmol/L can be used.

[11] = molecular target: T2, cynomolgus monkey FcγRIIa3 …; assay: SPR, antibody captured, FcgR analyte
Description: as §1, §2

[12] = molecular target: T3, cynomolgus monkey FcγRIIIaS …; assay: SPR, antibody captured, FcgR analyte
Description: as §1, §2

[13] = molecular target: T5, human FcγRIIaR extracellular domain, …; assay: SPR, antibody captured, FcgR analyte
Description: as §1, §2

[14] = molecular target: T6, cynomolgus monkey FcγRIIb extracellular …; assay: SPR, antibody captured, FcgR analyte
Description: as §1, §2

[15] = molecular target: T7, cynomolgus monkey FcγRIIa2 …; assay: SPR, antibody captured, FcgR analyte
Description: as §1, §2

[16] = molecular target: T8, human FcγRIIb extracellular domain, …; assay: SPR, antibody captured, FcgR analyte
Description: as §1, §2

[17] = molecular target: T9, cynomolgus monkey FcγRIIa1 …; assay: SPR, antibody captured, FcgR analyte
Description: as §1, §2

[18] = molecular target: T4, human FcγRIIIaV extracellular domain, …; assay: SPR, antibody captured, FcgR analyte
Description: as §1, §2

B1: M103205H795-MY001/M103202L889-SK1 (antibody, human IgG1, kappa)
heavy: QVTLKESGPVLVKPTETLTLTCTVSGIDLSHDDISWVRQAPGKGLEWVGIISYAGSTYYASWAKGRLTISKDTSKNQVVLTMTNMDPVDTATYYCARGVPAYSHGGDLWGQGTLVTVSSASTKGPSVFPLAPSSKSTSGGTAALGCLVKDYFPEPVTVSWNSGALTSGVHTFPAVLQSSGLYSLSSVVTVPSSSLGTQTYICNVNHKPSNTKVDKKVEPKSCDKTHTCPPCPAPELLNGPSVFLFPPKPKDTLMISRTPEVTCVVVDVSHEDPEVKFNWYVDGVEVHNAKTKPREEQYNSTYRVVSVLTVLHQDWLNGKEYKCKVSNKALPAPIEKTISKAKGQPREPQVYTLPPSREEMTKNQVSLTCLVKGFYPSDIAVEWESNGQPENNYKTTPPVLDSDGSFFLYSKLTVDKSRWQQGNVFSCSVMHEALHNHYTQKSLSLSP
light: DIVMTQSPATLSLSPGERATLSCTSSQSVYHANWLSWFQQKPGQPPKLLIYWASTLAYGVPSRFSGSGSGTDFTLTISSLQPEDAATYYCAGGYGGGRYAFGQGTKVEIKRTVAAPSVFIFPPSDEQLKSGTASVVCLLNNFYPREAKVQWKVDNALQSGNSQESVTEQDSKDSTYSLSSTLTLSKADYEKHKVYACEVTHQGLSSPVTKSFNRGEC
notes: Substitution put into M103205H795-SG1
For B1, the “KD fold (SG1 = 1)” value [1] was 0.2 fold, the “KD fold (SG1 = 1)” value [2] was 1.2 fold and the “KD fold (SG1 = 1)” value [3] was 0.03 fold. For the same binder, the “KD fold (SG1 = 1)” value [4] was 0.84 fold, the “KD fold (SG1 = 1)” value [5] was 0.1 fold and the “KD fold (SG1 = 1)” value [6] was 1 fold. For the same binder, the “KD fold (SG1 = 1)” value [7] was 1.4 fold, the “KD fold (SG1 = 1)” value [8] was 0.6 fold and the “KD fold (SG1 = 1)” value [9] was 1.1 fold. The Kd [10] was 3200 nM, the Kd [11] was 15000 nM and the Kd [12] was 1200 nM. The Kd [13] was 8200 nM, the Kd [14] was 1800 nM and the Kd [15] was 3500 nM. For the same binder, the Kd [16] was 7700 nM and the Kd [17] was 2900 nM.

B2: M103205H795-MY074/M103202L889-SK1 (antibody, human IgG1, kappa)
heavy: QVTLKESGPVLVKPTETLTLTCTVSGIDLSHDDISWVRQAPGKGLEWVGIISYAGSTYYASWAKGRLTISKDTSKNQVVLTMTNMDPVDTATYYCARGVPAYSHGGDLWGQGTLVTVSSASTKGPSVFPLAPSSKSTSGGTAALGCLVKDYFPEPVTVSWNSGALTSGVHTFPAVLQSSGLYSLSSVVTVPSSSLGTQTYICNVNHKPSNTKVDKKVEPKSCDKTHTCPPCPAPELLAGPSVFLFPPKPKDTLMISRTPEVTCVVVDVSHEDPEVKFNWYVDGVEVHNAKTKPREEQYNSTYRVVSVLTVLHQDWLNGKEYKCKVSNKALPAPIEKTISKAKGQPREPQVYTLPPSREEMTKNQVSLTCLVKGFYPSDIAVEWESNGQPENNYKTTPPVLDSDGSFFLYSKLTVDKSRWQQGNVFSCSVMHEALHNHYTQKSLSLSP
light: DIVMTQSPATLSLSPGERATLSCTSSQSVYHANWLSWFQQKPGQPPKLLIYWASTLAYGVPSRFSGSGSGTDFTLTISSLQPEDAATYYCAGGYGGGRYAFGQGTKVEIKRTVAAPSVFIFPPSDEQLKSGTASVVCLLNNFYPREAKVQWKVDNALQSGNSQESVTEQDSKDSTYSLSSTLTLSKADYEKHKVYACEVTHQGLSSPVTKSFNRGEC
notes: as for B1
B2 was tested, and the “KD fold (SG1 = 1)” value [1] was 7.5 fold, the “KD fold (SG1 = 1)” value [2] was 2.7 fold and the “KD fold (SG1 = 1)” value [3] was 1.33 fold. The “KD fold (SG1 = 1)” value [4] was 1.45 fold, the “KD fold (SG1 = 1)” value [5] was 5.2 fold and the “KD fold (SG1 = 1)” value [6] was 1.6 fold. The “KD fold (SG1 = 1)” value [7] was 2.2 fold, the “KD fold (SG1 = 1)” value [8] was 1.3 fold and the “KD fold (SG1 = 1)” value [9] was 1.6 fold. The Kd [10] was 92 nM, the Kd [11] was 6200 nM and the Kd [12] was 270 nM. The Kd [18] was 560 nM, the Kd [14] was 1100 nM and the Kd [16] was 8600 nM. The Kd [17] was 2000 nM.

B3: M103205H795-MY011/M103202L889-SK1 (antibody, human IgG1, kappa)
heavy: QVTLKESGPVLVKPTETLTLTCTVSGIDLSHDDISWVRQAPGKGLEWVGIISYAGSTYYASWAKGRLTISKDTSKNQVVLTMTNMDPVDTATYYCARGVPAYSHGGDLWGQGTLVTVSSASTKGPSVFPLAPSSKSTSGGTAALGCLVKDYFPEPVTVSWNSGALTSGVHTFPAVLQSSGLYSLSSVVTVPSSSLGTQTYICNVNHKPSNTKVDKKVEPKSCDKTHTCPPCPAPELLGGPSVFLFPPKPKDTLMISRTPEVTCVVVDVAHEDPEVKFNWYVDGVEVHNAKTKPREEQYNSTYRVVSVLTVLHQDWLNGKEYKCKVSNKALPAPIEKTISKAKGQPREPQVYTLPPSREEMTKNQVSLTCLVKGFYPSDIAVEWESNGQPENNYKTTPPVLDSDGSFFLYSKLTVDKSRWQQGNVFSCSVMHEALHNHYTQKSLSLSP
light: DIVMTQSPATLSLSPGERATLSCTSSQSVYHANWLSWFQQKPGQPPKLLIYWASTLAYGVPSRFSGSGSGTDFTLTISSLQPEDAATYYCAGGYGGGRYAFGQGTKVEIKRTVAAPSVFIFPPSDEQLKSGTASVVCLLNNFYPREAKVQWKVDNALQSGNSQESVTEQDSKDSTYSLSSTLTLSKADYEKHKVYACEVTHQGLSSPVTKSFNRGEC
notes: Put into M103205H795-SG1
With B3 the “KD fold (SG1 = 1)” value [1] was 1.4 fold, the “KD fold (SG1 = 1)” value [2] was 1.7 fold and the “KD fold (SG1 = 1)” value [3] was 2.4 fold. The “KD fold (SG1 = 1)” value [4] was 2.38 fold, the “KD fold (SG1 = 1)” value [5] was 6.5 fold and the “KD fold (SG1 = 1)” value [6] was 1.8 fold. For the same binder, the “KD fold (SG1 = 1)” value [7] was 1.8 fold, the “KD fold (SG1 = 1)” value [8] was 7 fold and the “KD fold (SG1 = 1)” value [9] was 1.4 fold. The Kd [10] was 490 nM, the Kd [11] was 9900 nM and the Kd [12] was 150 nM. The Kd [18] was 340 nM, the Kd [13] was 170 nM and the Kd [14] was 1000 nM. It also gave a Kd [15] of 2800 nM and a Kd [16] of 660 nM.

B4: M103205H795-MY042/M103202L889-SK1 (antibody, human IgG1, kappa)
heavy: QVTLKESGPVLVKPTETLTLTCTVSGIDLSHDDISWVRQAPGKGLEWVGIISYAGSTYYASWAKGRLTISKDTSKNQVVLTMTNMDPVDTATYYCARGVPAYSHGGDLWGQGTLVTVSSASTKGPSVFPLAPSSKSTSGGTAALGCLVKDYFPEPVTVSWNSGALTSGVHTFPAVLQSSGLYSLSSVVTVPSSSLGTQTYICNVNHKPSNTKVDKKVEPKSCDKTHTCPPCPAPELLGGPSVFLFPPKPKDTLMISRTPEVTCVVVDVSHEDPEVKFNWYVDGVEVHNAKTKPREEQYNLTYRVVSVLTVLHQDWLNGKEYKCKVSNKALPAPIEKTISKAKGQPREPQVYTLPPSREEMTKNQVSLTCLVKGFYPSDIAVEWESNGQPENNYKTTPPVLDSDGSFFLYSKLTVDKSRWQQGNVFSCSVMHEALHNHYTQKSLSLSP
light: DIVMTQSPATLSLSPGERATLSCTSSQSVYHANWLSWFQQKPGQPPKLLIYWASTLAYGVPSRFSGSGSGTDFTLTISSLQPEDAATYYCAGGYGGGRYAFGQGTKVEIKRTVAAPSVFIFPPSDEQLKSGTASVVCLLNNFYPREAKVQWKVDNALQSGNSQESVTEQDSKDSTYSLSSTLTLSKADYEKHKVYACEVTHQGLSSPVTKSFNRGEC
notes: as for B1
With B4 the “KD fold (SG1 = 1)” value [1] was 0.7 fold, the “KD fold (SG1 = 1)” value [2] was 2.1 fold and the “KD fold (SG1 = 1)” value [3] was 0.82 fold. The “KD fold (SG1 = 1)” value [4] was 1.53 fold, the “KD fold (SG1 = 1)” value [5] was 1.1 fold and the “KD fold (SG1 = 1)” value [6] was 1.1 fold. For the same binder, the “KD fold (SG1 = 1)” value [7] was 1.6 fold, the “KD fold (SG1 = 1)” value [8] was 1.2 fold and the “KD fold (SG1 = 1)” value [9] was 6.3 fold. It also gave a Kd [10] of 1000 nM, a Kd [11] of 8000 nM and a Kd [12] of 440 nM. The Kd [18] was 530 nM, the Kd [13] was 980 nM and the Kd [14] was 1600 nM. For the same binder, the Kd [15] was 3100 nM and the Kd [16] was 4000 nM.
